According to patent US20030211076A1, “Compositions and methods for treatment of proliferative disorders” (priority 2003, published 2003):

T1: lysyl oxidase (LO) (Bos taurus, UniProt P33072)
T1 construct: per mature LO molecule (32 kD); from tissue
T1 sequence (P33072 170-418): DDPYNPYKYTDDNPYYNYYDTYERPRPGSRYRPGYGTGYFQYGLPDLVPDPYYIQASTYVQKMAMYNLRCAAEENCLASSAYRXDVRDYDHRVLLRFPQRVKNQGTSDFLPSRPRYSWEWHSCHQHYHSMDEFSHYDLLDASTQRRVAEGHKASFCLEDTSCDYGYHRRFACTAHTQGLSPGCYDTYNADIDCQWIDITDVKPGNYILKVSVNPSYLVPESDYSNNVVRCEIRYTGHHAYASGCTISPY

B1: FGF4: human recombinant fibroblast growth factor 4 (R & D Systems) (protein, UniProt P08620 31-206, looked up)
Fibroblast growth factor 4: APTAPNGTLEAELERRWESLVALSLARLPVAAQPKEAAVQSGAGDYLLGIKRLRRLYCNVGIGFHLQALPDGRIGGAHADTRDSLLELSPVERGVVSIFGVASRFFVAMSSKGKLYGSPFFTDECTFKEILLPNNYNAYESYKYPGMFIALSKNGKTKKGNRVSPTMKVTHFLPRL
B2: FGF6: human recombinant fibroblast growth factor 6 (R & D Systems) (protein, UniProt P10767 38-208, looked up)
Fibroblast growth factor 6: SPAGTRANNTLLDSRGWGTLLSRSRAGLAGEIAGVNWESGYLVGIKRQRRLYCNVGIGFHLQVLPDGRISGTHEENPYSLLEISTVERGVVSLFGVRSALFVAMNSKGRLYATPSFQEECKFRETLLPNNYNAYESDLYQGTYIALSKYGRVKRGSKVSPIMTVTHFLPRI
B3: FGF5: human recombinant fibroblast growth factor 5 (R & D Systems) (protein, UniProt P12034 21-268, looked up)
Fibroblast growth factor 5: HGEKRLAPKGQPGPAATDRNPRGSSSRQSSSSAMSSSSASSSPAASLGSQGSGLEQSSFQWSPSGRRTGSLYCRVGIGFHLQIYPDGKVNGSHEANMLSVLEIFAVSQGIVGIRGVFSNKFLAMSKKGKLHASAKFTDDCKFRERFQENSYNTYASAIHRTEKTGREWYVALNKRGKAKRGCSPRVKPQHISTHFLPRFKQSEQPELSFTVTVPEKKKPPSPIKPKIPLSAPRKNTNSVKYRLKFRFG

What follows are molecules tested against T1, lysyl oxidase (LO) (assay: LO-dependent H2O2 release, horseradish peroxidase-coupled fluorescence assay (substrate potential for LO)). Settings: factor as sole substrate, LO-dependent H2O2 release in vitro.
Format: biochemical
Method: The oxidation of a primary amine substrate by LO yields stoichiometric amounts of the corresponding aldehyde, hydrogen peroxide and ammonia, as shown: RCH2NH2+O2+H2O→RCHO+H2O2+NH3 (Kagan, 1986). To assess the substrate potential of FGF2, LO-dependent H2O2 release was monitored in assays using FGF2 as the sole substrate, using both the optimum temperature for LO activity of 55° C. and the physiological temperature of 37° C. (Trackman et al., 1981).
LO reaction with FGF2 as a substrate was assessed by a horseradish peroxidase-coupled fluorescence assay for H2O2 production. Reaction mixtures contained 0.25 mg of sodium homovanillate(HVA), 40 μg of HRP, and FGF2 at doses as indicated below in 0.05 M sodium borate buffer, pH 8.2, in a final volume of 2 ml. Assays were initiated by the addition of LO to reaction mixtures. H2O2 release was continuously monitored at excitation and emission wavelengths of 315 and 425 nm, respectively, at a constant temperature of 55° C. or 37° C., as specified, in the thermostatted cuvette chamber of an SLM Aminco Bowman Series 2 Luminescence Spectrometer. All activity data were corrected for background rates of H2O2 release determined in complete assay mixtures supplemented with 200 μM BAPN, an irreversible inhibitor of LO. In FIG. 4, solid curves represent the time course of H2O2 release at 55° C. in the reaction of 0.16 μM LO with 0.23 (a), 0.45 (b) and 0.9 (c) μM FGF2, respectively. Dotted curve (d) represents the time course of H2O2 release in the reaction of 0.16 μM LO with 0.9 μM FGF2 at 37° C. The same data were obtained from three separate experiments.
Using the fluorometric assay (Trackman et al., 1981) to monitor LO-dependent H2O2 release in vitro, the substrate potential of other growth factors was also assessed. Major members of the FGF family tested included FGF 1, 4, 5, 6, 7 and EGF (note: All factors are human recombinant forms purchased from R & D Systems, Inc., Minneapolis, Minn.).
A human recombinant disulfide-linked dimer of VEGF165 (MW: 42 kDa)(R & D Systems) as a sole substrate was tested by using the standard in vitro LO catalysis assays as described above for FIG. 4 (Trackman et al., 1981). Curves represent the time course of H2O2 release at 55° C. (a) or 37° C. (b) in the reaction of 0.10 μM LO with 0.45 μM VEGF165. All activity data were corrected for background rates of H2O2 release determined in complete assay mixtures supplemented with the same amounts of LO preincubated with 100 μM BAPN for 15 min at 37° C. The same data were obtained from three separate experiments.
The standard in vitro LO catalysis assays as described above for FIG. 4 (Trackman et al., 1981) using human recombinant PDGF-AB (R & D Systems) as a sole substrate was tested. […] In FIG. 19, curves represent the time course of H2O2 release at 55° C. (a) and 37° C. (b) in the reaction of 0.11 μM LO with 0.46 μM PDGF-AB, respectively. All activity data were corrected for background rates of H2O2 release determined in complete assay mixtures supplemented with the same amounts of LO preincubated with 100 μM BAPN for 15 minutes at 37° C. The same data were obtained from three separate experiments.
To analyze the substrate potential of Tat, the standard in vitro LO catalysis assays as described in FIG. 4 (Trackman et al., 1981) was performed at the optimum temperature of 55° C. and at the physiological temperature of 37° C. A recombinant Tat with 9 lysines in a total of 86 amino acids was used as a sole substrate. FIG. 12A represents a dose and temperature-dependent response. Curves represent the time course of H2O2 release at 55° C. (solid) or 37° C. (dotted) in the reaction of 0.10 μM LO with 0.22 (a and d), 0.43 (b and e) and 0.85 (c and f) μM Tat, respectively. All activity data were corrected for background rates of H2O2 release determined in complete assay mixtures supplemented with the same amounts of LO preincubated with 100 μM BAPN for 15 min at 37° C. […]
For B1, the “substrate of LO (in words)” value was “substrates of LO”. With B2 the “substrate of LO (in words)” value was “substrates of LO”. B3 was tested, and the “substrate of LO (in words)” value was “substrates of LO”.

Same assay, conditions: oxidation by LO in vitro, 37° C. (molar ratio of H2O2 released per molecule of substrate)
In the case of B1, the “Oxidized Lysines per Molecule 37° C.” value is reported as 3.6. In the case of B2, the “Oxidized Lysines per Molecule 37° C.” value is reported as 3.1. B3 was tested, and the “Oxidized Lysines per Molecule 37° C.” value was 10.0.

Same assay, conditions: oxidation by LO in vitro, 55° C.
B1 was tested, and the “Oxidized Lysines per Molecule 55° C.” value was 14.5. For B2, the “Oxidized Lysines per Molecule 55° C.” value was 7.2. In the case of B3, the “Oxidized Lysines per Molecule 55° C.” value is reported as 18.0.
